Assay results taken from the NTF2 design screens of Basanta et al. (2020).

test: protease stability score; higher = more stable; yeast display proteolysis, trypsin and chymotrypsin;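 further: log10 excess protease needed over predicted unfolded state with 0 meaning unfolded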

Sequence	protease stability score
DEKEVATRFVKTVVEILRRGNPDDWMKLVDPNATAHYGDKTYHGREELKTLMEDRNRHADRIDVDVKSYDAHNGKVQVHVVVVQTHNGRSTTHEVRIVADLHNGDAKIRSIQEQ	0.713
DEEDAKVLKQVLENVESGDSKSAETLLDKDVKFVIGDKVLHGRTQYVDRVRRETKRMRVKRQVQHYEVNNGRVHMTIDIQYDIDGKPLRDQITLTAEFHNGRMQSLEVKMDRDFKRKVDK	0.313
DDEVAEELRDIVHNGNWEEMSRNADKNAKVTIGDKQVHGRESAVRVLRIWQKQFDHIQIDRIDKHPGRVRWNARANVNGREVDYHARIHVKNGKVTDVTMEFTDPSQKRQFNRDLN	0.205
DEEANKVIDRLLKAIKHNNPDQAQHNMDEDVRIRIGDQEINGREQAKKEIRKRNEKMRINIDEVTLNEHPNKVRIQYRYKVDVNGRPVRNSAHMEARVSNGKVKEIDVRVSEDQKRHEER	0.018
DEDQVLKVIEKALKAIQQGHREEAKKLGKPNVEVQAADQRDKGPDALLKMVEQVQKVGDKFEYKETRKKGGTVTTRVEVTFGGKTVEYEVNVQAEGGKVQKWEVRIDDDFIEQVKKS	0.671
DERIKDTVDQMWSAVKNNDPDQMNENFDPNARIEVGDKEVHGRDTLKKWQDTQNKRSNKDMESVSVKVDGDKVDIEAESKFTNNGQPHTNKMTASARLENGRFKEVHIDSRK	-0.513
DERDNKVVEEYIKALQRGDPKQARRQADPNARFQVGDTELHGMDDVARKIERETKQWRLEIHHVKVDVKGDKMTIRLDFVVEVNGHPKRMNLTVEAHAHNGKIKEMVMHVDPKQEEELKS	0.188
DEHLNRHLSTVLNILQEGDPKKLLQQFDPNAHFQIGDTHVHGREQMDQQMERERRRARTEVKDYKVDDQGEQLVLHMTFRVDRNGKPKEMQATIKAEVHNGHFKEMKFETDR	-0.089
DEENRRNFERLIEAIRTNNPSDVEQLVDPNVRFQVGNEVYNGREQFSKDVERLNRQINITIHVRRLHVHGEKVVVDFTYQQEVNGRPNSHRVKWDATLENGKIKSARNTFDEEFEKELTK	-0.091
DEEQVTKAKNLLENWKTNNPEEVKKLADPNARAQIGDQVIHGMDKYVTFLHKQRSKMRFELHIRSMTADNGRVKMTFDHVVDHNGRPDKNDARMSVQFENGKIKELVIQKDK	-0.295
EEELADLLRRFLENVKDNDENQLKRNLDPNVRVLVGDKTLHGREDVARWLTKHQREQRVEYRIKEYEIHGNHFNATMQAQNTNNGKPRTFEAVIRVQFRNGRFQVIQIEDKQ	1.39
DDQQKAKTHVRQVRDAATSNDPDEMRRLADENARFVVGDKEYEGRDQVRELVERERDNVDQVEIRLTDVEKRGDRLRLEVRVVWNHNGSHDHKILDMIVQNHNGTLRFVQLQQR	0.366
DEKALNHANKMLEAYETGNEKQVADQVDKDVRVEIGDKFYHGRENLRERMKKLMKEARFRITVKSVKVQGDQAKIDAEVTHTHNGQPRKRHMSMTVDVQGDKIKQVHVQYHG	0.523
DEQKERDKAKKIARNFQKNNEHRFEEMMDPNVKFVYGDKEVNGRDTYRKNLHELMTRADSVDIDHVDVRNGRVNVNLVVEVNGNRAEDRVQFTVHNGHIVKVNIDPKVMETAKS	-0.326
DERQLKILVRILNAIHEGDPDTVKQLVDPNARVVIGDKVLHGMDEVRDTLHKWQEEQEVDLKDYRDNVHNGKADITAKAKVNQDGTPDHIRFKATAEFRNGRAKEVRINHDK	1.09
DEEELTTLAEQLMDIIEQGDKKRFHQLADPNARMDVGDKRYHGREEMAKNLYDLVERVDTISVDSLSARNGRIKIDMRFKVNGQDVKQILVVRADNGTITRVSIETS	0.849
DEEAVNIHKTILEAEQSGDPDKFRQNVDPNVRYRYGDKEIHGREQAAERVKEKRDQARFQFDSIHIKVHGDKARAHFDFVVDHNGNPHRMSFTVVFNAHGDKLEFEIIKFDPRMKKELDS	0.198
EEELAKSYVELLKQLSEGNEENLKELMDPNARIEVGDKELHGREDIVNTWSKEAREIRIHYEIKHIEQEPGRVTIHARVEVQHDGQPSSKDFNVVFTAKNGRLTKMTVQDDG	0.767
DEETLRQANRKIQEFLSTNNFDELAKQMDKDVQIRIGDKEVHGRKDAQKMLTDIKDDADHASVHHVDVRGDKAKVRFEVNHNGSVKDVTVTITFHNGRIKRAKWHDT	0.089
DEEKKARQALKNLVQNLRTGDEDELRKMIDKDATVRVGDEEIHGRERIAKTLLEEVKEVDHFEQHVRSITRDGDKLVIVVTQKNNHNGENQHRTVTIWIHERNGELLIQSMEYK	0.504
DEEKLEKFARNFEKVVERGDEDKFRSQADPNVQAVIGDKRIHGDEHLAHWMNKLRSHIDHFRVVDMRVQGEEIHLDVKFVVDGRRVRFIIEIEVHNGHITRFTVHVTDEEKWRRREK	0.335
DEERVQQMLEQAFKAIQNGNEEQMQKLGKPNVEYKYVDHEYEGPDAARVMVQLVKRVGAEVKQQKVEVKGNTATAVFQYHDGDQTVETTAEVEYEGDKMKKARVELTDEVKKVVHKG	-0.117
DEEVLDTVLKALSTNNEEQFHRMADPNDRVSYGDKSIHGMVKAADVQREFRKRVDHIHIQRYDSEGDKAKVTYVAHVDGRNINITITFDVRNGTIRSINIRARNEKNQKRFEEVVG	0.245
DQRDVKKAEHLLRILETGNESELKKMMDPNARARVGDTTYHGMDDFVRKLTHMRDRAKFEIKEYSATDHNGHIRVHVRREVNFNGRPDRVSFIVRFDIENGKVRSVIFNLPRELLEREKK	0.429
DEELQKLVDDLLQALRSNNPEQFENNFDPNAKIRYGEKDVHGRTRFVKELQRERDDARFRIETYRVDNQGDKASLKMVFQRDHNGQPQRHTARAEIVVKNGKVQTAVFNFDS	-0.018

Sequence	protease stability score
DERDADEIAKVFVHNNPKDIERMVDEDVRIIIGDFEVQGREEARKYAEQLEKHIDHNHVRDYRVEGNKVTLDVNVVVNGRSLTFVVHITMHNGHVKEIRVQFTSPEDQKVFKEVVG	0.719
DEDTLKKLFEQVFKYVQKGNTKELKKVIDESVEFQFGDHRYKGVDQYIKLIKEFKDRGVQFRVEEAQQKDDDVTMRTKIRYGNKEVTVKAQARYDGGHAKHFRVELSEEAKKALKTG	0.292
DEEDLKRVVDILHQNDPDQMIEMADENVKLEVGDKEFHGREEFSKFQRRIRDAVDHVEVKSLSHHNGRINMTFVLQINGRRIEFSAVVRVHNGKIKSMKVNATNEDDQSRFESQLS	0.192
DEEAQKHLREFFKNQETGDPDKLMEMVDENVHWQVGDKTIEGRDTMKQDFDRRRKELRYHVDIKKVNAHNGRIRARATFHNEHNGKPKSFQAIVVAVITNGRIKSIHVQKRQ	-0.037
DEDAHKRYEHIERVMEHGDESTLEQLMDPNARIQVGDKEVRGMNKWAKEVAEEIRQMEVRVDIKSVDVRGNRVRVEAKYTVNVNGRPKTATKEVVLDFENGRVSYVQVRFDPDRKKSIDQ	0.443
DEHAKDVFDTLREARKRGDEDTMKRQVDPNAKAQVGDKTYHGSDEIARRLTEENRESRVEYHTMSVEIQGDHVVVRFRARYEHNGQPSHFHAVEVVKADNGQIVFLVLQETK	0.06
DEHAKRVVEKAWKALDTGDPKTMEDMLDPNARQRYGDTSVHGRENIIHKLEKDSKEIRFKIKIDNITVHGDKIDVRMLVTERRDGQPRQTHRVATFRIHNGRLEEADFQKDG	-0.073
DREEVKKIKRLIETNDWRTLAQQADENVEIVYGNKTIHGREQALKFWDILRKHADHIEIKRFDNQGDKVRVNMTVEVNGRHITMNMNIVFHNGRLKEVEIRVTDEKQLKEIEDLVQ	1.59
EEELAKRIRDFLHWVEKGNDDRAMELADPNARVDIGDRDIHGRESIREWVKKMQDKQRVEFDVKHVTVRGNTVVVDLVMRVEHNGQPSETKYQFEAKDNNGHLKFIKVTTIS	1.3
DEHVSRNFENMLRAIKSGNEEEIRELIDKNVRVQVGDKEIHGREEAVKDFKRRHEEIRFNLEVKRIEVRGNKVDVDAEASMTVNGKPYEWHVNIEVRARNGRIKYLNYRVPEEQVKKVES	0.177
DEENADVIRRFLDAIHTGNPDDARKNADPNAQYKIGDKTYSGMERWVKTLQDQKRHQEIDIKIKHISVKGDKITVEFVVVVNINGRPVSFSAILSAEVKNGKIKHLQYHISEEQKRKVEG	0.222
DEVTRAEELLHEIQEAFRTGDEDQARRLADENVQIHVGDKFVRGRRDYVKRLKDEVDRVDHMEVHIKSVDVHGDKATMDYRVRVQFDGQSKERDVVMYAKISNGQLKVTSLTEK	0.012
DEELAKNLKEWWDVLKTGDTDRLKEMADPNAKFQIGDQTIHGMDRFVKEQVHHMQQMRFEIKVDSFSAHDGRIDIDAVQRVRVNGVPIDYTVKIRAEAHNGKWKSMELEIPENVVRELER	1.27
DDEDQKSTAEEIAKALQTGDKDKVTELFDEDARLKIGDTEFHGREQVSRAVHEIKTRVDHMELKDMEFTGDHVRIVYIANVDGHHATFVAHVVLNNGTAKSMSLSVRDERDKESVDK	0.276
DEKQDRDIQRVLHDNNPDHMKKLVDENAHAQVGNKTYHGREQVLTLIEHMVRTVDHMSIDKVEVKNGKADMDYHVNINGQSARVRVDVKFHNGRIKEIRIQATDKEVRDILDEAFD	1.23
DDEANRVARHFVKALRKGDPDRLREMVDPNAKVVVGDQSWHGRDSLHHILEREIKEIRISIKDVKFQDQGDKANVEMRVESKHNGQPSESSSSVIVVVRNGRIQEIDMKTSG	0.291
DPKKLYKVAIRVVRAAVSGDVEKVVKMYKPDGKLTLGDQELRGREQIKKYADKFYRKGKRFQADHIRVTGNRVEVIMKFTLGGQTVTFQFYIKLKDDQVDEYEFRFNEEAEKMMRTG	0.276
DEEEMDRFIKHLERNDEDRWVQMADPNVKVRIGDNTLRGREQLKKWFHRFRKRVDTYSIDSYTVHGEKIKVRAKFQVDGRNVQFSFVVVIKNGRIKSATYEARNEEDQEQDKRDLE	1.5
DEDKMKEIAKKFMDYLVNGHADEVRKMGKEGVRVHVGDTTIQGPDQLKEYVKKFKDQGVHNEYKEEEVKGDTITMHTKAQLGNAEVDFEVHYVVKGDKVEKFEVKTDKKQQEKFKKS	-0.352
DEDRVRRHLEKAFKVIQNGNEEEAKKIGAPDVEYHYADKELEGEEAVIVAVRIVKKIGAEVKTQEEEVKGNEMRATFQYKKGDTTVQTKATVVYEGDKLKKARVELSDEVKKIIHQG	-0.111
DEEIKRHIKEMMEAISHGDPDQLRRLFDPNVDIRVGDKEITGMEEYLHQLKHKLDSAEFEYKHYEVKVRNGSVRARYEYIVRINGRPNSVTAEVEIKMTNGKAKHAVYRFSDEDKKRLEG	0.698
DDDEVRKLVHNLERGNFDDFVRQADPNAKVTIGNKTYHGREDIKSAYKKLKDQVDHLEVKRVRHHNGRLNVERIVVVNGRNIRYHVRLTIHNGRIKHIRYQATNEEQQKWMDEVIK	0.559
DDDNKRKAETYMKNLHTGDPDKATEYMDKDAKIQYGDKSVHGRHQWREEIERRRKELRFTVDLHRLHVQGEKFDLKYIEHNNHNGNPKSQSASVTYRMHNGRVHSIQYSYTK	-0.237
DEEKEFHKMIKELDKVAKRNDEQSVQNLADKDVEVTYGDKSYHGREVLRRMFRDQLTRADKVRITMKSYTVRGDKAHAVLNVVLDHNGRQEHIDVKVTAQADNGRVRLKHVNIP	-0.039
DDEVAKTIVKNWKTGDPDRLNEMFDPNARIRIGNQDVHGHEEVKKMLHKFFTAIDSIDIKRVSVHNGRIDIDVRAHFNGRSFRFVLHIVVEDGRVKHMEMKVTDPDSQRELEKHQK	1.35
